T1: Torpedo nicotinic acetylcholine receptor γ subunit (Tetronarce californica (formerly …, UniProt P02714 18-506))
T1 sequence (looked up): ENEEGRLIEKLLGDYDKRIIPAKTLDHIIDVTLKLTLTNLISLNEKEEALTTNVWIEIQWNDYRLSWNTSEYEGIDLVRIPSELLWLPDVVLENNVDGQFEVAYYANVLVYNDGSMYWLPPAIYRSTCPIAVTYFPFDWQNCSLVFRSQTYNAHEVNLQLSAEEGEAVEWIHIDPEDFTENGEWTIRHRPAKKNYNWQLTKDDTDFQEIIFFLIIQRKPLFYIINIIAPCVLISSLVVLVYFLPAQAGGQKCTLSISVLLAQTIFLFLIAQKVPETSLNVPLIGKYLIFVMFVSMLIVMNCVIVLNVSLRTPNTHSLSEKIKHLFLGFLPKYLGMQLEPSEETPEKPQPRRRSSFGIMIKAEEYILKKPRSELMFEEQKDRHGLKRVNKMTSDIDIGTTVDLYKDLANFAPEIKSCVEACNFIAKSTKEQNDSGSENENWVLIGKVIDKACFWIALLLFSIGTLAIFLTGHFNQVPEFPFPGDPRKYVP

T2: Torpedo nicotinic acetylcholine receptor δ subunit (Tetronarce californica (formerly …, UniProt P02718 22-522, glycosylated (site not given)))
T2 sequence (looked up): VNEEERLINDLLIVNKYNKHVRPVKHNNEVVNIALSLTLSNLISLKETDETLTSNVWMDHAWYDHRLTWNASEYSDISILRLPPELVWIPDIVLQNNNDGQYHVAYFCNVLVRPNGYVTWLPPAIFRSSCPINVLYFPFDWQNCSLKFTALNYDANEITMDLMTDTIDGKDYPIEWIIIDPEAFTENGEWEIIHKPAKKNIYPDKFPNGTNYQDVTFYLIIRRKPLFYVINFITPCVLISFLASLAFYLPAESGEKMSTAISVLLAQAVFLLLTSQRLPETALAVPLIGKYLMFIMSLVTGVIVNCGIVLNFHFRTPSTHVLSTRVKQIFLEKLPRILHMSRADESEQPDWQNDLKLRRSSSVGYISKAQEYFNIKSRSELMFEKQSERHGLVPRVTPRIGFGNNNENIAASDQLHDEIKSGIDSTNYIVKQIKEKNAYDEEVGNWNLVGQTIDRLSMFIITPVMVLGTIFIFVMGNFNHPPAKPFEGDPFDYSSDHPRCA


How the values were obtained:
Assay in all cases: cryo-EM structure
[1] = target: native Torpedo nicotinic acetylcholine receptor (Tetronarce californica (formerly Torpedo californica)) (UniProt P02710)
[2] = target: T1, Torpedo nicotinic acetylcholine …
[3] = target: Torpedo nicotinic acetylcholine receptor α subunit (Tetronarce californica (formerly …, UniProt P02710 25-461))
[4] = target: T2, Torpedo nicotinic acetylcholine …

Chain of Torpedo nicotinic acetylcholine receptor α subunit (Tetronarce californica (P02710 25-461): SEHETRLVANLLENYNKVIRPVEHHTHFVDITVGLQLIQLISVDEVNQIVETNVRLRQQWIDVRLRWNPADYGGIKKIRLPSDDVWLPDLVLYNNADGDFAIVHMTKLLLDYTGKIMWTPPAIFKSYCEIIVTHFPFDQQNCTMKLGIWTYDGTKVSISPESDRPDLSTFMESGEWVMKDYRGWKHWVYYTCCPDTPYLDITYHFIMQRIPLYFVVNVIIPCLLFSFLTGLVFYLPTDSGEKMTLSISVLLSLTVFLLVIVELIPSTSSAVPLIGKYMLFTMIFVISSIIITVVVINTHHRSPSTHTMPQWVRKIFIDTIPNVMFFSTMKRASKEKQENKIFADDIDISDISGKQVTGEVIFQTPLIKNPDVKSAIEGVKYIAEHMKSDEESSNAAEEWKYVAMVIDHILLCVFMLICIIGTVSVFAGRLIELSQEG
Chain of native Torpedo nicotinic acetylcholine receptor (Tetronarce californica (formerly Torpedo californica)) (P02710 25-461, chain 1 of 2): as the sequence (P02710 25-461) above
Chain of native Torpedo nicotinic acetylcholine receptor (Tetronarce californica (formerly Torpedo californica)) (P02712 25-493, chain 2 of 2, further chain): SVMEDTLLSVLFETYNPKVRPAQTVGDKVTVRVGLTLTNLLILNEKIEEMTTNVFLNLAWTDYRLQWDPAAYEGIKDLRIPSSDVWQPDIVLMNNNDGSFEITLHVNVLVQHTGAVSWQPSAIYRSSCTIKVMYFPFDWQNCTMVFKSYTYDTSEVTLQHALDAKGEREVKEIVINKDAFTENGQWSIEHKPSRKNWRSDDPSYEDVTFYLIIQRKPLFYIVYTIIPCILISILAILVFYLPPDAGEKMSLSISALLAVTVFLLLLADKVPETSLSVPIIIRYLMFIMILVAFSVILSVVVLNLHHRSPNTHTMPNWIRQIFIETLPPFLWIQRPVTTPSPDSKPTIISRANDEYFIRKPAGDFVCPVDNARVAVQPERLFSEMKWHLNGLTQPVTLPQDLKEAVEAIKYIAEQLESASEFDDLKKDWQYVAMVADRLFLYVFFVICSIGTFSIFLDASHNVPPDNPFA

Molecule | stoichiometry N [1] | binding result [2] | binding result [3] | binding result [4]
α-bungarotoxin (from UniProt P60615 22-95) (natural protein) | 2 | – | – | –
α-bungarotoxin (natural protein) IVCHTTATSPISAVTCPPGENLCYRKMWCDAFCSSRGKVVELGCAATCPSKKPYEEVTCCSTDKCNPHPKQRPG | – | binds | binds | binds
